Results: US20160215061A1 (Merck Sharp & Dohme, published 2016)

How the values were obtained:
[1] = biological target: T1, recombinant human FcγRIIB expressed in CHO cells (human, UniProt P31994 43-217, limits assumed); assay: SPR (Biacore), 1/1 binding model; reference Herceptin
T1 construct: Soluble analyte injected in SPR; also called human FcgRIIB; rhFcgRIIB (CHO)
T1 sequence (looked up): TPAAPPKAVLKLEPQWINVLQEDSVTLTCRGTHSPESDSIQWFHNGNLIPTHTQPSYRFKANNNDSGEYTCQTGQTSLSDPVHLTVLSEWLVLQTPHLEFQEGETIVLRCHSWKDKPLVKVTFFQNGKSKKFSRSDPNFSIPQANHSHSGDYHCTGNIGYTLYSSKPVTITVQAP

[2] = biological target: T1, recombinant human FcγRIIB expressed in …; assay: SPR (Biacore); capture sample on chip, rhFcgRIIB (CHO) injected; reference Herceptin
Method: (§1) Purified IgGs were analyzed by SDS-PAGE for expression and assayed for binding to human or mouse FcγRIIB. […] The CMS chip (GE Healthcare, Wauwatusa, Wis.) was immobilized on all flow cells with mouse anti-human IgG (Fc specific) (obtained from GE Healthcare, Wauwatusa, Wis.) according to the Biacore Human Antibody Capture Kit to ˜7000 RU. Purified full-length IgG1 variants containing mutations in Fc region (described in Example 1) were captured on the chip through immobilized mouse anti-human IgG (obtained from GE Healthcare, Wauwatusa, Wis.) followed by injection of human or mouse FcγRIIB. Human FcγRIIB was expressed in Chinese Hamster Ovary cells (Merck, Whithouse Station, N.J.) and mouse FcγRIIB was expressed in NS0 murine myeloma (R&D Systems, Minneapolis, Minn.)). Each flowcell was regenerated between each analyte injection with 3M MgCl for 40 s at 10 μl/min. Data was analyzed with Biacore T100 Evaluation Software using the 1/1 binding model for KD values, where reported. Amino acid compositions of novel variants were identified by DNA sequencing. Clones were tabulated based on response units (RU's) registered following receptor binding.
(§2) Resulting clones were fermented in 1 L bioreactor vessels to produce each of the described variants. Culture supernatants were passed over protein A coated beads to capture secreted Fc fragments. Purified Fc fragments were eluted at pH 3.0 into tubes containing 1M Tris (pH 8.0). Purified Fc fragments were analyzed by surface plasmon resonance (SPR) on Biacore for binding to human and mouse FcγRIIB as described in Example 2.

[3] = biological target: T2, recombinant mouse FcγRIIB expressed in NS0 cells (mouse, UniProt P08101 40-207, limits assumed); assay: SPR (Biacore); capture sample on chip, rmFcgRIIB (NSO) injected; reference Herceptin
T2 construct: Bought from R&D Systems; soluble analyte injected in SPR; also called rmFcgRIIB (NSO); CD32-B
T2 sequence (looked up): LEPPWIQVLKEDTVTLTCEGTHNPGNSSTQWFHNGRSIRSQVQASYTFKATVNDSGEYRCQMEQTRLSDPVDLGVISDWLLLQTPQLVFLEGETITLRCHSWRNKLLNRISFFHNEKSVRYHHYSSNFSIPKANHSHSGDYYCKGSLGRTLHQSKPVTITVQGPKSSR
Method: as §1, §2

B1: F243A/V264A/S267E/L328F Fc (SEQ ID NO8) (other)
chain: AEPKSCDKTHTCPPCPAPELLGGPSVFLAPPKPKDTLMISRTPEVTCVVADVEHEDPEVKFNWYVDGVEVHNAKTKPREEQYNSTYRVVSVLTVLHQDWLNGKEYKCKVSNKAFPAPIEKTISKAKGQPREPQVYTLPPSREEMTKNQVSLTCLVKGFYPSDIAVEWESNGQPENNYKTTPPVLDSDGSFFLYSKLTVDKSRWQQGNVFSCSVMHEALHNHYTQKSLSLSPG
notes: Human IgG1 Fc fragment with F243A, V264A, S267E, L328F (EU)
[1]
  Fold Improvement in KD vs WT IgG1 rhFcgRIIb: 11 fold
[2]
  Fold Increase in RU vs WT IgG1: 7 fold
[3]
  Fold Increase in RU vs WT IgG1: 2.4 fold

B2: 183-D4/F241A Fc (SEQ ID NO13) (other)
chain: AEPKSCDKTHTCPPCPAPELLGGPSVALFPPKPKDTLMISRTPEVTCVVVDVSHEDPEVKFNWYVDGVEVHNAKTKPREEQYNSTYRVVSVLTVLHQDWLNGEEYKCKVSNEALPAPIEKTISKTKGRPREPQVYTLPPSRDELTKNQVSLTCLVKGFYPSDIAVEWESNGQPENNYKTTPPVLDSDGSFFLYSKLTVDRSRWQQGNVFSCSVMHEALHNHYTQKSLSLSPGK
notes: Human IgG1 Fc fragment with F241A, K317E, K326E, A339T, Q342R, K414R (EU)
[2]
  Fold Increase in RU vs WT IgG1: 4.7 fold
[3]
  Fold Increase in RU vs WT IgG1: 5 fold

B3: K317E/K326E/K414R Fc (SEQ ID NO11) (other)
chain: AEPKSCDKTHTCPPCPAPELLGGPSVFLFPPKPKDTLMISRTPEVTCVVVDVSHEDPEVKFNWYVDGVEVHNAKTKPREEQYNSTYRVVSVLTVLHQDWLNGEEYKCKVSNEALPAPIEKTISKAKGQPREPQVYTLPPSRDELTKNQVSLTCLVKGFYPSDIAVEWESNGQPENNYKTTPPVLDSDGSFFLYSKLTVDRSRWQQGNVFSCSVMHEALHNHYTQKSLSLSPGK
notes: Human IgG1 Fc fragment, made in glycoengineered Pichia pastoris
[3]
  Fold Increase in RU vs WT IgG1: 5.2 fold

B4: 183-D4/F241A/L328F Fc (SEQ ID NO12) (other)
chain: AEPKSCDKTHTCPPCPAPELLGGPSVALFPPKPKDTLMISRTPEVTCVVVDVSHEDPEVKFNWYVDGVEVHNAKTKPREEQYNSTYRVVSVLTVLHQDWLNGEEYKCKVSNEAFPAPIEKTISKTKGRPREPQVYTLPPSRDELTKNQVSLTCLVKGFYPSDIAVEWESNGQPENNYKTTPPVLDSDGSFFLYSKLTVDRSRWQQGNVFSCSVMHEALHNHYTQKSLSLSPGK
notes: Human IgG1 Fc fragment with F241A, K317E, K326E, L328F, A339T, Q342R, K414R (EU)
[2]
  Fold Increase in RU vs WT IgG1: 1.2 fold
[3]
  Fold Increase in RU vs WT IgG1: 1.3 fold
